Experiments:
Claspin = molecular target: T1, Claspin (human, UniProt Q9HAW4 1-1339); experiment: co-immunoprecipitation with anti-FLAG resin from HEK293T cells, immunoblot for endogenous Claspin (FIG. 2A)
T1 construct: also called endogenous Claspin; wild type Claspin
Method: To test whether APC/C^Cdh1 has a role in the degradation of Claspin during G0/G1, the expression of Cdh1 was reduced in T98G cells using a validated […] (SEQ ID NO:21). T98G cells were serum starved following knockdown of Cdh1, and the expression levels of Claspin were analyzed at various time points thereafter. FIGS. 2A-D are immunoblots showing Claspin is degraded in G0 and G1 via the APC/C^Cdh1 ubiquitin ligase. […] HEK293T cells were transfected with the indicated FLAG-tagged constructs or an empty vector (EV). Whole cell extracts (WCE) were immunoprecipitated (IP) with anti-FLAG resin, and immunocomplexes were probed with antibodies to the indicated proteins.

FLAG-tagged Claspin(ENL) = molecular target: T2, FLAG-tagged Claspin(ENL) (human, UniProt Q9HAW4 1-1339, limits assumed); experiment: co-immunoprecipitation with anti-HA antibody from HEK293T cells, immunoblot (FIG. 3F)
T2 construct: also called mutant #3; not shown: FLAG tag
T2 sequence (Q9HAW4 other isoform, or with tags, fused parts or gaps limits assumed): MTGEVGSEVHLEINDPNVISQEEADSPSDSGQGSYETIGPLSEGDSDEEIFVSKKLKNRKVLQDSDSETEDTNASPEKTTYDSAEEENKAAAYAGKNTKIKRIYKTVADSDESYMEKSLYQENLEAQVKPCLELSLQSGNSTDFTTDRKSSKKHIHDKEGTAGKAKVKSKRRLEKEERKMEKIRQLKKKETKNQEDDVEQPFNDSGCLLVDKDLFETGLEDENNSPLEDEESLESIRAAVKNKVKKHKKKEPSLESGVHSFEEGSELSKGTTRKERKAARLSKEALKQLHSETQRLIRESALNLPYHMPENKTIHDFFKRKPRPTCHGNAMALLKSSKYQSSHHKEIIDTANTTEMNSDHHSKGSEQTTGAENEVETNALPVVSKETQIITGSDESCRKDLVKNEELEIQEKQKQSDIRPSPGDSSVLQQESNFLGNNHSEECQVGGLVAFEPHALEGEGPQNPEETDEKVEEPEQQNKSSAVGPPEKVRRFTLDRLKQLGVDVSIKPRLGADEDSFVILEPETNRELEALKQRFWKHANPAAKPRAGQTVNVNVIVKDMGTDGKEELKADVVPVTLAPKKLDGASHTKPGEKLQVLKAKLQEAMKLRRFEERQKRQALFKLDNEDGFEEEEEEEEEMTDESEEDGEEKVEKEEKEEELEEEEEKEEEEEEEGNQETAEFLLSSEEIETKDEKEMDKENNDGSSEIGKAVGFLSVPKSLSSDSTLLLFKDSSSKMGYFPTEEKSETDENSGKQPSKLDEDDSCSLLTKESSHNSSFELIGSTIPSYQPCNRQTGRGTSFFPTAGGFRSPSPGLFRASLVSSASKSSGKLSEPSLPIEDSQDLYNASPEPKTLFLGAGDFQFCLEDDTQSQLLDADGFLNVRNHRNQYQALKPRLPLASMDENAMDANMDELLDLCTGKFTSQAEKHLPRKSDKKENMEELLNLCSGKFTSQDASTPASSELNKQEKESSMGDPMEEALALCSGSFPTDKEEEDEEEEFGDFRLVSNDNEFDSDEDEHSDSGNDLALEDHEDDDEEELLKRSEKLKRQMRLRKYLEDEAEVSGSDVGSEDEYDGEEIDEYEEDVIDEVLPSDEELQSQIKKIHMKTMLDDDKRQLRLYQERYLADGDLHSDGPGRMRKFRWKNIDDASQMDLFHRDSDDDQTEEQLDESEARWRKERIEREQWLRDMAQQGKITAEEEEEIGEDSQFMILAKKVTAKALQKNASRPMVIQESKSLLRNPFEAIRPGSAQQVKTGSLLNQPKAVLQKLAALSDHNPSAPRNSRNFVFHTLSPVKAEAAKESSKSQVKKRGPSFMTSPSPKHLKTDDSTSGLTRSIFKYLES
Method: (§1) HEK293T cells were cotransfected with HA-tagged Cdh1 and the indicated FLAG-tagged Claspin mutants. Whole cell extracts (WCE, bottom two panels, FIG. 3B) were immunoprecipitated (IP, upper two panels FIG. 3B) with an anti-HA antibody, and the indicated proteins were detected by immunoblotting. Finally, five unique, triple-point-mutations to Alanine across Claspin amino acids 79-102 were inserted, following the pattern of evolutionary conserved residues (FIG. 3E), and these mutants were assayed for binding to Cdh1. […] Thus, these studies identified the motif “EENxENL” (SEQ ID NO:29) located at residues 86-92 of Claspin (SEQ ID NO: 9), as the site mediating binding to Cdh1. Accordingly, in contrast to wild type Claspin, Claspin(ENL) was stable in HeLa cells progressing through G1 (FIG. 2C).

FLAG-tagged Claspin(EEN) = molecular target: T3, FLAG-tagged Claspin(EEN) (human, UniProt Q9HAW4 1-1339, limits assumed); experiment: as above
T3 construct: also called mutant #2; not shown: FLAG tag
T3 sequence (Q9HAW4 other isoform, or with tags, fused parts or gaps limits assumed): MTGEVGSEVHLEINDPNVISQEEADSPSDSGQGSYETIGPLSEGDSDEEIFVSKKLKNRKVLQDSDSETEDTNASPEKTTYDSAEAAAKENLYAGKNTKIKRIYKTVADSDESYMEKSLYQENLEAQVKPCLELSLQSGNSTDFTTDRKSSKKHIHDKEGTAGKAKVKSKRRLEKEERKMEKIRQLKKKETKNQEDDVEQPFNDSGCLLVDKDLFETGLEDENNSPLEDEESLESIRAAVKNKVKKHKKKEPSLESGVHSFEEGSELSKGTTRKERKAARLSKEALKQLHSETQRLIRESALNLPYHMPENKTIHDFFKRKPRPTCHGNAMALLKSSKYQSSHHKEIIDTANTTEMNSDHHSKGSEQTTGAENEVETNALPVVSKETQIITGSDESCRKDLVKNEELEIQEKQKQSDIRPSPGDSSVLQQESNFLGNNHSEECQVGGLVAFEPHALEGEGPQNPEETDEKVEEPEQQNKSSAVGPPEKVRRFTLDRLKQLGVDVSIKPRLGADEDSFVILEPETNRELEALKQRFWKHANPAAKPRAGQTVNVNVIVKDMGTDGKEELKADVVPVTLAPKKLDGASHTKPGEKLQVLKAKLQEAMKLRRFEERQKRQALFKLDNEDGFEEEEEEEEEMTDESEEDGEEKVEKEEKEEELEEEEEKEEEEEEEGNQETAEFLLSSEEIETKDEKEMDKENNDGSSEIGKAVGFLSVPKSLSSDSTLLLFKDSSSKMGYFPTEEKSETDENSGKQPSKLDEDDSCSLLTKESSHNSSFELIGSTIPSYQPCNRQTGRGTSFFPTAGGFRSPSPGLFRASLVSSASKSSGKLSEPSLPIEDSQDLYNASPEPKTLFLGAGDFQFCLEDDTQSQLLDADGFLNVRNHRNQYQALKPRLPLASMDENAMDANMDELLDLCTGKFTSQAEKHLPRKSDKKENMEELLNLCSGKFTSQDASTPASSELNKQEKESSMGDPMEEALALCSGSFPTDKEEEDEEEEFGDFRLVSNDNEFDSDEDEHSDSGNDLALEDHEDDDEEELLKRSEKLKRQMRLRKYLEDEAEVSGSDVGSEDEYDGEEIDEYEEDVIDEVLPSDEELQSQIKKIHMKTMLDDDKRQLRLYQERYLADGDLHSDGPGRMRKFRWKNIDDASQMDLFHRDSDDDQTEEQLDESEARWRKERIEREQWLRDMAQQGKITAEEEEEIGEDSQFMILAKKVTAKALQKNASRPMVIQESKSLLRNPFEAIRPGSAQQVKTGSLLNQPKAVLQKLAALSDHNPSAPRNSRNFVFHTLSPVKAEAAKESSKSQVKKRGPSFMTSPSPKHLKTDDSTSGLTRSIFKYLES
Method: as §1

T1 sequence (Q9HAW4 whole entry): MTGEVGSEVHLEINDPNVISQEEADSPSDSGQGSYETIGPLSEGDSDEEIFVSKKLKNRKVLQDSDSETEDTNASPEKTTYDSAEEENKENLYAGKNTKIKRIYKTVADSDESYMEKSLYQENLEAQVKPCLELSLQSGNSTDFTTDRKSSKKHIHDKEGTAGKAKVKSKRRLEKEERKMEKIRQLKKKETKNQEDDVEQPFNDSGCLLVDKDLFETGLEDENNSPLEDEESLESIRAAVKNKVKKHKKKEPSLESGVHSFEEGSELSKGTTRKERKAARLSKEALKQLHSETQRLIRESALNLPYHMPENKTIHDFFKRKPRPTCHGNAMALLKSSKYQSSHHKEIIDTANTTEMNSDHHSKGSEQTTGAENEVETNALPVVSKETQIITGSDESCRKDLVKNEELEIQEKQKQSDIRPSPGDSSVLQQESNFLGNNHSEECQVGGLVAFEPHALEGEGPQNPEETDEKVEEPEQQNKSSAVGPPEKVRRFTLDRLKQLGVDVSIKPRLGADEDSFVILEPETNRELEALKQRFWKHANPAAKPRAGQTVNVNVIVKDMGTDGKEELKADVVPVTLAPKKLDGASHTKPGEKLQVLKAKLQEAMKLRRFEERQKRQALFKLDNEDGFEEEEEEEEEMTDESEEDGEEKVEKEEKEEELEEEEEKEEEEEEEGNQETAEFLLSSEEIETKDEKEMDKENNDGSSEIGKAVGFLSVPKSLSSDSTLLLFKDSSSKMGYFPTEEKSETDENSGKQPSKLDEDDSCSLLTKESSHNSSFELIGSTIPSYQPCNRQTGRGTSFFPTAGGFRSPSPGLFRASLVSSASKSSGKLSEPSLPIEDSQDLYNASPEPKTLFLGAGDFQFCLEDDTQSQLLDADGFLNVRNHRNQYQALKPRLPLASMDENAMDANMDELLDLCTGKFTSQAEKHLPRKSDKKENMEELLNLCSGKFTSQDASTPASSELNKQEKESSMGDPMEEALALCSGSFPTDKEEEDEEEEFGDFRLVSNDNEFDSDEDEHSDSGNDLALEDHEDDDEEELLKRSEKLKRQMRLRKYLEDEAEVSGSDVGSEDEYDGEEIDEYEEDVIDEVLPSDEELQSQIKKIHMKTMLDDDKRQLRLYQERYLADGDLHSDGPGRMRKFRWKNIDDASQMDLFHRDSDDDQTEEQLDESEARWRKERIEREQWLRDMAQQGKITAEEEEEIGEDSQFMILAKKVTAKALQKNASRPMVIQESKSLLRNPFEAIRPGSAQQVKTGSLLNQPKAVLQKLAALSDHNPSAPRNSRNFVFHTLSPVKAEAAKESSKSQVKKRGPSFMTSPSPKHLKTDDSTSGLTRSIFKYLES

Binder | binding result (Claspin) | binding result (FLAG-tagged Claspin(ENL)) | binding result (FLAG-tagged Claspin(EEN))
FLAG-tagged Fbxw4 (other, UniProt P57775 1-412, looked up, not shown: FLAG tag) MAAAAGEEEEEEEAARESAARPAAGPALWRLPEELLLLICSYLDMRALGRLAQVCRWLRRFTSCDLLWRRIARASLNSGFTRLGTDLMTSVPVKERVKVSQNWRLGRCREGILLKWRCSQMPWMQLEDDSLYISQANFILAYQFRPDGASLNRRPLGVFAGHDEDVCHFVLANSHIVSAGGDGKIGIHKIHSTFTVKYSAHEQEVNCVDCKGGIIVSGSRDRTAKVWPLASGRLGQCLHTIQTEDRVWSIAISPLLSSFVTGTACCGHFSPLRIWDLNSGQLMTHLGSDFPPGAGVLDVMYESPFTLLSCGYDTYVRYWDLRTSVRKCVMEWEEPHDSTLYCLQTDGNHLLATGSSYYGVVRLWDRRQRACLHAFPLTSTPLSSPVYCLRLTTKHLYAALSYNLHVLDFQNP | no binding | – | –
FLAG-tagged Fbxw5 (other, UniProt Q969U6 1-566, looked up, not shown: FLAG tag) MDEGGTPLLPDSLVYQIFLSLGPADVLAAGLVCRQWQAVSRDEFLWREQFYRYYQVARDVPRHPAAMSWYEEFQRLYDTVPCVEVQTLREHTDQVLHLSFSHSGYQFASCSKDCTVKIWSNDLTISLLHSADMRPYNWSYTQFSQFNKDDSLLLASGVFLGPHNSSSGEIAVISLDSFALLSRVRNKPYDVFGCWLTETSLISGNLHRIGDITSCSVLWLNNAFQDVESENVNVVKRLFKIQNLNASTVRTVMVADCSRFDSPDLLLEAGDPATSPCRIFDLGSDNEEVVAGPAPAHAKEGLRHFLDRVLEGRAQPQLSERMLETKVAELLAQGHTKPPERSATGAKSKYLIFTTGCLTYSPHQIGIKQILPHQMTTAGPVLGEGRGSDAFFDALDHVIDIHGHIIGMGLSPDNRYLYVNSRAWPNGAVVADPMQPPPIAEEIDLLVFDLKTMREVRRALRAHRAYTPNDECFFIFLDVSRDFVASGAEDRHGYIWDRHYNICLARLRHEDVVNSVVFSPQEQELLLTASDDATIKAWRSPRTMRVLQAPRPRPRTFFSWLASQRR | no binding | – | –
HA-tagged Cdh1 (other, not shown: HA tag) MDQDYERRLLRQIVIQNENTMPRVTEMRRTLTPASSPVSSPSKHGDRFIPSRAGANWSVNFHRINENEKSPSQNRKAKDATSDNGKDGLAYSALLKNELLGAGIEKVQDPQTEDRRLQPSTPEKKGLFTYSLSTKRSSPDDGNDVSPYSLSPVSNKSQKLLRSPRKPTRKISKIPFKVLDAPELQDDFYLNLVDWSSLNVLSVGLGTCVYLWSACTSQVTRLCDLSVEGDSVTSVGWSERGNLVAVGTHKGFVQIWDAAAGKKLSMLEGHTARVGALAWNAEQLSSGSRDRMILQRDIRTPPLQSERRLQGHRQEVCGLKWSTDHQLLASGGNDNKLLVWNHSSLSPVQQYTEHLAAVKAIAWSPHQHGLLASGGGTADRCIRFWNTLTGQPLQCIDTGSQVCNLAWSKHANELVSTHGYSQNQILVWKYPSLTQVAKLTGHSYRVLYLAMSPDGEAIVTGAGDETLRFWNVFSKTRSTKESVSVLNLFTRIR | – | no binding | no binding

Source: patent US20100016408A1 (NEW YORK UNIVERSITY, published 2010)
